Patent US20100209939A1

What was measured:
[1] = biological target: human BNP(1-32), synthetic peptide (Sigma-Aldrich #B-5900) (human); assay: sandwich ELISA, L21016 capture; BNP(1-32) 5,000 pg/ml
[2] = biological target: human BNP(1-32), synthetic peptide (Sigma-Aldrich #B-5900) (human); assay: sandwich ELISA, L21016 capture; BNP(1-32) 10,000 pg/ml
[3] = biological target: human BNP(1-32), synthetic peptide (Sigma-Aldrich #B-5900) (human); assay: sandwich ELISA, L21016 capture; BNP(1-32) 1,250 pg/ml
[4] = biological target: human proBNP(1-108), recombinant protein produced in E. coli (HyTest), non-glycosylated (human) (UniProt P16860); assay: sandwich ELISA, hinge 76 capture, HRP-mAb; proBNP(1-108) 312.5 pg/ml
Sequence of human proBNP(1-108), recombinant protein produced in E. coli (HyTest), non-glycosylated (human) (P16860 27-134): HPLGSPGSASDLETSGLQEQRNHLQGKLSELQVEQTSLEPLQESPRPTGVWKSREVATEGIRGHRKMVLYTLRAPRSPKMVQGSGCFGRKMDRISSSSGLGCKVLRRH

[5] = biological target: human proBNP(1-108), recombinant protein produced in E. coli (HyTest), non-glycosylated (human) (UniProt P16860); assay: sandwich ELISA, hinge 76 capture, HRP-mAb; proBNP(1-108) 625 pg/ml
[6] = biological target: human proBNP(1-108), recombinant protein produced in E. coli (HyTest), non-glycosylated (human) (UniProt P16860); assay: sandwich ELISA, hinge 76 capture, HRP-mAb; proBNP(1-108) 39 pg/ml
[7] = biological target: human BNP(1-32), synthetic peptide (Sigma-Aldrich #B-5900) (human); assay: sandwich ELISA, L21016 capture; BNP(1-32) 0 pg/ml (blank)
[8] = biological target: human proBNP(1-108), recombinant protein produced in E. coli (HyTest), non-glycosylated (human) (UniProt P16860); assay: sandwich ELISA, hinge 76 capture, HRP-mAb; proBNP(1-108) 2,500 pg/ml
[9] = biological target: human proBNP(1-108), recombinant protein produced in E. coli (HyTest), non-glycosylated (human) (UniProt P16860); assay: sandwich ELISA, hinge 76 capture, HRP-mAb; proBNP(1-108) 20 pg/ml
[10] = biological target: human proBNP(1-108), recombinant protein produced in E. coli (HyTest), non-glycosylated (human) (UniProt P16860); assay: sandwich ELISA, hinge 76 capture, HRP-mAb; proBNP(1-108) 1,250 pg/ml
[11] = biological target: human BNP(1-32), synthetic peptide (Sigma-Aldrich #B-5900) (human); assay: sandwich ELISA, L21016 capture; BNP(1-32) 20 pg/ml
[12] = biological target: human proBNP(1-108), recombinant protein produced in E. coli (HyTest), non-glycosylated (human) (UniProt P16860); assay: sandwich ELISA, hinge 76 capture, HRP-mAb; proBNP(1-108) 0 pg/ml (blank)
[13] = biological target: human proBNP(1-108), recombinant protein produced in E. coli (HyTest), non-glycosylated (human) (UniProt P16860); assay: sandwich ELISA, hinge 76 capture, HRP-mAb; proBNP(1-108) 5,000 pg/ml
[14] = biological target: human BNP(1-32), synthetic peptide (Sigma-Aldrich #B-5900) (human); assay: sandwich ELISA, L21016 capture; BNP(1-32) 78 pg/ml
[15] = biological target: human BNP(1-32), synthetic peptide (Sigma-Aldrich #B-5900) (human); assay: sandwich ELISA, L21016 capture; BNP(1-32) 2,500 pg/ml
[16] = biological target: human BNP(1-32), synthetic peptide (Sigma-Aldrich #B-5900) (human); assay: sandwich ELISA, L21016 capture; BNP(1-32) 156.25 pg/ml
[17] = biological target: human proBNP(1-108), recombinant protein produced in E. coli (HyTest), non-glycosylated (human) (UniProt P16860); assay: sandwich ELISA, hinge 76 capture, HRP-mAb; proBNP(1-108) 156.25 pg/ml
[18] = biological target: human BNP(1-32), synthetic peptide (Sigma-Aldrich #B-5900) (human); assay: sandwich ELISA, L21016 capture; BNP(1-32) 625 pg/ml
[19] = biological target: human proBNP(1-108), recombinant protein produced in E. coli (HyTest), non-glycosylated (human) (UniProt P16860); assay: sandwich ELISA, hinge 76 capture, HRP-mAb; proBNP(1-108) 78 pg/ml
[20] = biological target: human proBNP(1-108), recombinant protein produced in E. coli (HyTest), non-glycosylated (human) (UniProt P16860); assay: sandwich ELISA, hinge 76 capture, HRP-mAb; proBNP(1-108) 10,000 pg/ml
[21] = biological target: human BNP(1-32), synthetic peptide (Sigma-Aldrich #B-5900) (human); assay: sandwich ELISA, L21016 capture; BNP(1-32) 312.5 pg/ml
[22] = biological target: human BNP(1-32), synthetic peptide (Sigma-Aldrich #B-5900) (human); assay: sandwich ELISA, L21016 capture; BNP(1-32) 39 pg/ml
[23] = biological target: human BNP(1-32), synthetic peptide (Sigma-Aldrich #B-5900) (human); assay: sandwich ELISA, L21016 capture, BNP(1-32) 5 ng/ml; 50B7 0.5 µg/ml alone, no 20G7
[24] = biological target: glycosylated human proBNP(1-108), recombinant protein from HEK293 cells (HyTest) (human) (UniProt P16860); assay: SPR ProteOn XPR36, mAb captured by anti-Fc, soluble antigen 13-200 nM
Sequence of glycosylated human proBNP(1-108), recombinant protein from HEK293 cells (HyTest) (human) (P16860 27-134): as above

[25] = biological target: human proBNP(1-108), recombinant protein produced in E. coli (HyTest), non-glycosylated (human) (UniProt P16860); assay: as above
[26] = biological target: 24C5 monoclonal antibody (HyTest); assay: competition ELISA: BNP(1-32) immobilised at 0.5 µg/ml, 24C5 at 0.5 µg/ml mixed with the soluble peptide, anti-mouse IgG-peroxidase; % inhibition of the binding of 24C5 to BNP(1-32)

Sequence of human BNP(1-32), synthetic peptide (Sigma-Aldrich #B-5900) (human) (peptide, as listed by the source): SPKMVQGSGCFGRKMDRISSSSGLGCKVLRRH

Row | Molecule | OD 490 nm [1] | OD 490 nm [2] | OD 490 nm [3] | OD [4] | OD [5] | OD [6] | OD 490 nm [7] | OD [8] | OD [9] | OD [10] | OD 490 nm [11] | OD [12] | OD [13] | OD 490 nm [14] | OD 490 nm [15] | OD 490 nm [16] | OD [17] | OD 490 nm [18] | OD [19] | OD [20] | other results
1 | 24C5 monoclonal antibody (HyTest) | 0.068 OD | 0.077 OD | 0.056 OD | 0.035 OD | 0.07 OD | 0.056 OD | 0.071 OD | 0.069 OD | 0.052 OD | 0.068 OD | 0.068 OD | 0.044 OD | 0.117 OD | 0.052 OD | 0.067 OD | 0.071 OD | 0.055 OD | 0.059 OD | 0.056 OD | 0.22 OD | OD 490 nm [21]: 0.063 OD; OD 490 nm [22]: 0.055 OD
2 | 26E2 monoclonal antibody (HyTest) | 0.041 OD | 0.048 OD | 0.031 OD | 0.028 OD | 0.024 OD | 0.028 OD | 0.022 OD | 0.031 OD | 0.028 OD | 0.024 OD | 0.034 OD | 0.024 OD | 0.041 OD | 0.055 OD | 0.035 OD | 0.032 OD | 0.027 OD | 0.029 OD | 0.033 OD | 0.158 OD | OD 490 nm [21]: 0.027 OD; OD 490 nm [22]: 0.032 OD
3 | 50B7 monoclonal antibody (HyTest) |  |  |  |  |  |  |  |  |  |  |  |  |  |  |  |  |  |  |  |  | OD 490 nm [23]: 1.3 OD
4 | hinge 76 monoclonal antibody (Bio-Rad) |  |  |  |  |  |  |  |  |  |  |  |  |  |  |  |  |  |  |  |  | Kd [24]: 23.5 nM; koff [24]: 0.00272 s⁻¹; kon [24]: 117000 M⁻¹ s⁻¹; Kd [25]: 0.173 nM; koff [25]: 0.000194 s⁻¹; kon [25]: 1.12e+06 M⁻¹ s⁻¹
5 | AGRKMDR [mutated epitope peptide A11GRKMDR17 (SEQ ID NO: 62)] |  |  |  |  |  |  |  |  |  |  |  |  |  |  |  |  |  |  |  |  | IC50 (read off the curve) [26]: 2 µg/mL
